# Positions count from the first letter of the chain named.
# B1: C40 x P24 bispecific antibody in a BC1 format (bispecific antibody)
# chain 1: not shown
# chain 2: EVQLVESGGGLVQPGGSLRLSCAASGFTFSYYYIHWVRQAPGKGLEWVAWIDPYGHSTTYADSVKGRFTISADTSKNTAYLQMNSLRAEDTAVYYCARGGRGAMDYWGQGTLVTVSSASPREPQVYTDPPSRDELTKNQVSLTCLVKGFYPSDIAVEWESNGQPENNYKTTPPVLDSDGSFFLYSKLTVDKSRWQQGNVFSCSVMHEALHNHYTQKSLSLSGEC
# chain 3: DIQMTQSPSSLSASVGDRVTITCRASQSVSSAVAWYQQKPGKAPKLLIYSASSLYSGVPSRFSGSRSGTDFTLTISSLQPEDFATYYCQQVSYSPYTFGQGTKVEIKRTVAAPSVFIFPPSDEQLKSGTASVVCLLNNFYPREAKVQWKVDNALQSGNSQESVTEQDSKDSTYSLSSTLTLSKADYEKHKVYACEVTHQGLSSPVTKSFNRGECDKTHTCPPCPAPELLGGPSVFLFPPKPKDTLMISRTPEVTCVVVDVSHEDPEVKFNWYVDGVEVHNAKTKPREEQYNSTYRVVSVLTVLHQDWLNGKEYKCKVSNKALPAPIEKTISKAKGQPREPQVCTLPPSREEMTKNQVSLSCAVKGFYPSDIAVEWESNGQPENNYKTTPPVLDSDGSFFLVSKLTVDKSRWQQGNVFSCSVMHEALHNHYTQKSLSLSPGK
# chain 4: EVQLVESGGGLVQPGGSLRLSCAASGFTFDQYYIHWVRQAPGKGLEWVAEIYPAGSYTYYADSVKGRFTISADTSKNTAYLQMNSLRAEDTAVYYCARGPYSVRYALDYWGQGTLVTVSSASTKGPSVFPLAPSSKSTSGGTAALGCLVKDYFPEPVTVSWNSGALTSGVHTFPAVLQSSGLYSLSSVVTVPSSSLGTQTYICNVNHKPSNTKVDKKVEPPKSC
# notes: B-Body of four polypeptide chains, BC1 format; CD47 arm from C40, PD-L1 arm from P24; also called C40 × P24
# B2: C56 x P22 bispecific antibody in a BC1 format (bispecific antibody)
# chain 1: not shown
# chain 2: B1 chain 2 with S30T, W50F, G55S, H56G, T59E, R101L, G102Y, M104L
# chain 3: B1 chain 3 with V91Y, S92Y, Y93T
# chain 4: EVQLVESGGGLVQPGGSLRLSCAASGFTFSSYYIHWVRQAPGKGLEWVAWITSHGYSTKYADSVKGRFTISADTSKNTAYLQMNSLRAEDTAVYYCARDSVIYGLDYWGQGTLVTVSSASTKGPSVFPLAPSSKSTSGGTAALGCLVKDYFPEPVTVSWNSGALTSGVHTFPAVLQSSGLYSLSSVVTVPSSSLGTQTYICNVNHKPSNTKVDKKVEPPKSC
# notes: B-Body of four polypeptide chains, BC1 format; CD47 arm from C56, PD-L1 arm from P22; also called C56 × P22
# B3: C59 x P22 bispecific antibody in a BC1 format (bispecific antibody)
# chain 1: not shown
# chain 2: B1 chain 2 with S30T, Y31S, W50Y, P53S, Y54K, G55H, H56G, S57T, T59Q, G102S
# chain 3: B1 chain 3 with V91Y, S92Y, Y93T
# chain 4: B2 chain 4
# notes: B-Body of four polypeptide chains, BC1 format; CD47 arm from C59, PD-L1 arm from P22; also called C59 × P22
# B4: C40 x P31.2 bispecific antibody in a BC1 format (bispecific antibody)
# chain 1: not shown
# chain 2: B1 chain 2
# chain 3: B1 chain 3 with V91F, S92G, Y93A, S94E, Y96I
# chain 4: EVQLVESGGGLVQPGGSLRLSCAASGFTFSSYYIHWVRQAPGKGLEWVATISSGGGFTYYADSVKGRFTISADTSKNTAYLQMNSLRAEDTAVYYCARGYTLTPVLDYWGQGTLVTVSSASTKGPSVFPLAPSSKSTSGGTAALGCLVKDYFPEPVTVSWNSGALTSGVHTFPAVLQSSGLYSLSSVVTVPSSSLGTQTYICNVNHKPSNTKVDKKVEPPKSC
# notes: B-Body of four polypeptide chains, BC1 format; CD47 arm from C40, PD-L1 arm from P31.2; also called C40 × P31.2
# B5: antibody designated P24 (antibody, V domains shown)
# VH: EVQLVESGGGLVQPGGSLRLSCAASGFTFDQYYIHWVRQAPGKGLEWVAEIYPAGSYTYYADSVKGRFTISADTSKNTAYLQMNSLRAEDTAVYYCARGPYSVRYALDYWGQGTLVT
# VL: DIQMTQSPSSLSASVGDRVTITCRASQSVSSAVAWYQQKPGKAPKLLIYSASSLYSGVPSRFSGSRSGTDFTLTISSLQPEDFATYYCQQVSYSPYTFGQGTKVEIK
# notes: Anti-PD-L1
# B6: C40 x P31.2 bispecific antibody in a BC44 format (bispecific antibody)
# chain 1: not shown
# chain 2: B1 chain 2 with D128L, S131C, G222P, E223G, C224K
# chain 3: B1 chain 3 with V91F, S92G, Y93A, S94E, Y96I
# chain 4: B4 chain 4
# notes: B-Body of four polypeptide chains, BC44 format; CD47 arm from C40, PD-L1 arm from P31.2; also called C40 × P31.2
# B7: C59 x P31.2 bispecific antibody in a BC44 format (bispecific antibody)
# chain 1: not shown
# chain 2: EVQLVESGGGLVQPGGSLRLSCAASGFTFTSYYIHWVRQAPGKGLEWVAYIDSKHGTTQYADSVKGRFTISADTSKNTAYLQMNSLRAEDTAVYYCARGGRSAMDYWGQGTLVTVSSASPREPQVYTLPPCRDELTKNQVSLTCLVKGFYPSDIAVEWESNGQPENNYKTTPPVLDSDGSFFLYSKLTVDKSRWQQGNVFSCSVMHEALHNHYTQKSLSLSPGK
# chain 3: B1 chain 3 with V91F, S92G, Y93A, S94E, Y96I
# chain 4: B4 chain 4
# notes: B-Body of four polypeptide chains, BC44 format; CD47 arm from C59, PD-L1 arm from P31.2; also called C59 × P31.2
# B8: C59 x P22 bispecific antibody in a BC44 format (bispecific antibody)
# chain 1: not shown
# chain 2: B7 chain 2
# chain 3: B1 chain 3 with V91Y, S92Y, Y93T
# chain 4: B2 chain 4
# notes: B-Body of four polypeptide chains, BC44 format; CD47 arm from C59, PD-L1 arm from P22; also called C59 × P22
# B9: C56 x P22 bispecific antibody in a BC44 format (bispecific antibody)
# chain 1: not shown
# chain 2: B7 chain 2 with S31Y, Y50F, S53P, K54Y, H55S, T57S, Q59E, R101L, S102Y, M104L
# chain 3: B1 chain 3 with V91Y, S92Y, Y93T
# chain 4: B2 chain 4
# notes: B-Body of four polypeptide chains, BC44 format; CD47 arm from C56, PD-L1 arm from P22; also called C56 × P22
# B10: C40 x P24 bispecific antibody in a BC44 format (bispecific antibody)
# chain 1: not shown
# chain 2: B1 chain 2 with D128L, S131C, G222P, E223G, C224K
# chain 3: B1 chain 3
# chain 4: B1 chain 4
# notes: B-Body of four polypeptide chains, BC44 format; CD47 arm from C40, PD-L1 arm from P24; also called C40 × P24
# B11: C40 x P24 (silent Fc) bispecific antibody in a BC44 format (bispecific antibody)
# chain 1: not shown
# chain 2: B1 chain 2 with D128L, S131C, G222P, E223G, C224K
# chain 3: B1 chain 3 with L228A, L229A, P323K
# chain 4: B1 chain 4
# Biological target: T1, CD47 and PD-L1 together on the surface of the same cells (CD47 PD-L1 TCA CHO cells); PD-L1 MDA-MB-231 cells; … (Homo sapiens (Human), UniProt Q08722 19-323; Q9NZQ7 19-290)
# Experiment: flow cytometry on CD47 PD-L1 TCA CHO cells (both targets on the cells); BC1 format
row,Binder,EC50 [nM]
1,B1,1.3
2,B2,1.1
3,B3,2.3
4,B4,0.13

# Biological target: T2, biotinylated human PD-L1 (extracellular domain, Acro Biosystems) (human, UniProt Q9NZQ7 19-238, biotinylated)
# T2 construct: Bought protein; also called biotinylated antigen; biotinylated human PD-L1-His Avitag; not shown: His Avitag or His tag
# T2 sequence (Q9NZQ7 19-238): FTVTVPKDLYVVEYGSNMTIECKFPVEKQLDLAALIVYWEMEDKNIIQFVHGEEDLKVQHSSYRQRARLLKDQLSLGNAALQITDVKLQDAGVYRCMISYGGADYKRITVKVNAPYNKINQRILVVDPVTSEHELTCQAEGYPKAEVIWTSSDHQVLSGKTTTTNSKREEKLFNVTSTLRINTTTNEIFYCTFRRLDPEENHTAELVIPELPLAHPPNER
# Experiment: Octet in-tandem cross-competition, 100 nM biotinylated antigen on a streptavidin sensor
row,Binder,binding result
1,B5,binds

# Biological target: T3, CD47 on cells (target cells of the assays) (Homo sapiens (Human), UniProt Q08722 19-323)
# Experiment: cell-based or functional assay
row,Binder,"IC50, CD47/SIRPα Inhibition Assay in PD-L1 MDA-MB-231 Cells [nM]"
1,B6,0.108
2,B7,0.266
3,B8,0.35
4,B9,0.218
5,B10,0.112

# Biological target: PD-L1 on cells (target cells of the assays) (Homo sapiens (Human), UniProt Q9NZQ7 19-290)
# Sequence (Q9NZQ7 19-290 limits assumed): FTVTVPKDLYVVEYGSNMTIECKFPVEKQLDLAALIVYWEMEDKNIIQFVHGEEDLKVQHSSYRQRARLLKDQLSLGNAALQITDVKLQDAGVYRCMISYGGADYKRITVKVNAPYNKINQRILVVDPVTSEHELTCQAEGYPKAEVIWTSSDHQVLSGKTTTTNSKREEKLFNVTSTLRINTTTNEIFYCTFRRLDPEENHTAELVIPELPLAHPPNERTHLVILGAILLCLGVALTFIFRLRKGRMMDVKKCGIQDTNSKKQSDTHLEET
# Experiment: cell-based or functional assay
Binder,"IC50, PD-1/PD-L1 Inhibition Assay in Jeko-PD-L1 Cells [nM]","IC50, PD-1/PD-L1 Inhibition Assay in MDA-MB-231 PD-L1 Cells [nM]"
B11,0.274,14.7
B6,0.0115,1.5
B7,0.0268,3.7
B8,0.0481,2.5
B9,1.99,3
B10,0.275,1.3

# Biological target: T1, CD47 and PD-L1 together on the surface …
# Experiment: flow cytometry on PD-L1 MDA-MB-231 cells (both targets on the cells); BC44 format
row,Binder,EC50 [nM]
1,B6,0.69
2,B7,2.5
3,B8,1.5
4,B9,1.2
5,B10,3.1

# Biological target: T3, CD47 on cells (target cells of the …)
# Experiment: cell-based or functional assay
# Remark: another data set of the same source
row,Binder,"IC50, CD47/SIRPα Inhibition Assay, JeKo-PD-L1 Cells [nM]"
1,B11,0.26
2,B9,1.2
3,B10,1.26

# Biological target: T1, CD47 and PD-L1 together on the surface …
# Experiment: flow cytometry on Jeko-PD-L1 cells (both targets on the cells); BC44 format
row,Binder,EC50 [nM]
1,B6,0.227
2,B7,0.256
3,B9,0.218
4,B10,0.703

# Source: patent US20240010751A1 (EXELIXIS, published 2024)
